# ± gives the standard deviation of the averaged measurements.
# System: ATP
# Experiment: switch fluorescence ratio, 500 uM ATP over buffer (Cy3 cluster intensity, sum of 5 cycles each) (fold (ratio)); higher = stronger signal-on switching upon ATP binding; sequences stand for … in TCGTCGGCAGCGTCAGATGTGTATAAGAGACAGTTTTTTTTTTTTTTTTTTTTTTTTT…TC
# Details: aptamer strand: ATP DNA aptamer (quencher-CACCTGGGGGAGTATTGCGGAGGAAGG + anchor), 100 nM annealed; ATP concentration: 500 uM
# Outline: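 Switching-strand clusters labelled with Cy3 on a modified Illumina MiSeq flow-cell were annealed to 100 nM quencher-labelled ATP aptamer, imaged in selection buffer, and re-imaged after 15 min with 500 uM ATP at 22 °C. This was done over five cycles with NaOH stripping and re-annealing in between. The fluorescence ratio is summed target-cycle over summed buffer-cycle Cy3 intensity per cluster, averaged per switch-domain sequence, excluding clusters outside 100-1000 RFU.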
# 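Note: ATP exposure 15 min at 22 °C before imaging.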
row,Sequence,switch fluorescence ratio
1,TTGTAAGATT,0.987 ± 0.0048
2,TTGTAAGTAG,0.979 ± 0.012
3,TTGTAAGTTT,0.985 ± 0.049
4,TTGTAATAGG,1.27 ± 0.4
5,TTGTAATCAG,0.966 ± 0.045
6,TTGTAATTAA,0.9963 ± 0.0096
7,TTGTACTACC,1.1603 ± 0.00036
8,TTGTAGAAAA,1.3 ± 0.37
9,TTGTAGGCGA,1.09 ± 0.0026
10,TTGTAGGTAT,0.999 ± 0.069
11,TTGTAGTCTT,0.991 ± 0.022
12,TTGTATATGG,1.05 ± 0.022
13,TTGTATCAGT,1.01 ± 0.024
14,TTGTATTCTT,1.04 ± 0.088
15,TTGTATTTGG,1.02 ± 0.043
16,TTGTCCCTGC,1.016 ± 0.0054
17,TTGTCGGATT,0.991 ± 0.021
18,TTGTCTGGGG,0.985 ± 0.03
19,TTGTGAGTGG,0.976 ± 0.017
20,TTGTGCCTAT,1.005 ± 0.0071
21,TTGTGCGAGA,0.989 ± 0.013
22,TTGTGGAAGC,1.01 ± 0.025
23,TTGTGGCAAC,1.24 ± 0.3
24,TTGTGGGAAT,1.05 ± 0.077
25,TTGTGGGGGA,1.02 ± 0.046
26,TTGTGGTACG,0.981 ± 0.041

row,Sequence,switch fluorescence ratio
1,TTGTGGTGTT,0.986 ± 0.023
2,TTGTGTAGGG,1.01 ± 0.017
3,TTGTGTAGTC,1.005 ± 0.0091
4,TTGTGTC,1.06 ± 0.023
5,TTGTGTCTGC,0.999 ± 0.011
6,TTGTGTGGTG,0.98 ± 0.011
7,TTGTGTGTTT,0.989 ± 0.024
8,TTGTGTTTTC,0.9971 ± 0.006
9,TTGTTA,0.964 ± 0.044
10,TTGTTAAATA,0.98 ± 0.011
11,TTGTTAAATT,0.98 ± 0.018
12,TTGTTAGAAT,1.038 ± 0.0047
13,TTGTTAGCCC,1.026 ± 0.0026
14,TTGTTAGCCT,1.05 ± 0.019
15,TTGTTAGGGC,1.07 ± 0.017
16,TTGTTAGGGG,0.986 ± 0.019
17,TTGTTATTAG,1.03 ± 0.047
18,TTGTTATTTT,1 ± 0.03
19,TTGTTCAAGT,0.998 ± 0.043
20,TTGTTCAGGG,0.99 ± 0.013
21,TTGTTCGAGG,0.988 ± 0.026
22,TTGTTCGATG,0.99 ± 0.025
23,TTGTTCGATT,1 ± 0.034
24,TTGTTCGGGA,1.016 ± 0.0094
25,TTGTTCGGGG,1.03 ± 0.056
26,TTGTTCGGTA,1.02 ± 0.016

row,Sequence,switch fluorescence ratio
1,TTGTTCGTAG,0.981 ± 0.034
2,TTGTTGAGAA,0.995 ± 0.056
3,TTGTTGAGAT,1.02 ± 0.035
4,TTGTTGAGGG,1.014 ± 0.0042
5,TTGTTGCTTT,1.02 ± 0.03
6,TTGTTGGCGA,1.04 ± 0.023
7,TTGTTGTTAG,1.0094 ± 0.00094
8,TTGTTGTTGG,1.01 ± 0.032
9,TTGTTGTTTT,0.995 ± 0.035
10,TTGTTTAGGT,1 ± 0.03
11,TTGTTTATTC,1.02 ± 0.071
12,TTGTTTGTAA,1.04 ± 0.018
13,TTGTTTGTCC,1.03 ± 0.058
14,TTGTTTGTGT,1.02 ± 0.03
15,TTGTTTGTTC,1.01 ± 0.034
16,TTGTTTTATG,0.998 ± 0.022
17,TTGTTTTTGT,1.03 ± 0.032
18,TTGTTTTTT,1.03 ± 0.018
19,TTGTTTTTTT,1 ± 0.05
20,TTTAAAAAAA,1.02 ± 0.027
21,TTTAAAAAAT,1.02 ± 0.035
22,TTTAAAAGA,1 ± 0.02
23,TTTAAACCTT,1.89 ± 1.2
24,TTTAAACGGA,1.05 ± 0.081
25,TTTAAAGACC,0.993 ± 0.022
26,TTTAAAGAGT,0.972 ± 0.022

row,Sequence,switch fluorescence ratio
1,TTTAAAGGGT,1.01 ± 0.031
2,TTTAAATAAC,1.02 ± 0.029
3,TTTAAATCCT,1.09 ± 0.013
4,TTTAAATTCG,1.01 ± 0.014
5,TTTAAATTTA,1.01 ± 0.028
6,TTTAACCCCC,1.17 ± 0.24
7,TTTAACCGTA,1.02 ± 0.023
8,TTTAACGCAT,1.24 ± 0.12
9,TTTAACTGA,1.04 ± 0.044
10,TTTAACTTAG,1.016 ± 0.0032
11,TTTAAGAAGT,1 ± 0.027
12,TTTAAGAGTG,0.992 ± 0.0031
13,TTTAAGCAAG,1.062 ± 0.0077
14,TTTAAGGCGG,0.989 ± 0.044
15,TTTAAGGGTA,0.994 ± 0.023
16,TTTAAGGGTT,1.02 ± 0.054
17,TTTAAGGTCG,1.03 ± 0.082
18,TTTAAGGTGG,1.015 ± 0.0046
19,TTTAAGTCT,0.984 ± 0.095
20,TTTAAGTGGT,0.998 ± 0.018
21,TTTAATACTT,1.03 ± 0.0052
22,TTTAATAGGG,0.995 ± 0.036
23,TTTAATCGAG,1.04 ± 0.037
24,TTTAATGAAC,1 ± 0.074
25,TTTAATGAGT,1.02 ± 0.024
26,TTTAATGCAA,1.05 ± 0.033

row,Sequence,switch fluorescence ratio
1,TTTAATTAAG,0.985 ± 0.055
2,TTTAATTAAT,0.983 ± 0.023
3,TTTAATTATT,1.02 ± 0.0053
4,TTTAATTCTT,1 ± 0.012
5,TTTAATTGCC,0.993 ± 0.081
6,TTTAATTGGC,1.17 ± 0.19
7,TTTAATTGGT,1.02 ± 0.021
8,TTTAATTGTT,0.978 ± 0.034
9,TTTAATTTAG,1.02 ± 0.024
10,TTTACAAGGT,1.03 ± 0.014
11,TTTACAATCG,0.9899 ± 0.0098
12,TTTACATAAG,1 ± 0.043
13,TTTACCACCT,1.27 ± 0.096
14,TTTACCCTCC,1.21 ± 0.13
15,TTTACCGCTA,1.94 ± 0.58
16,TTTACCTAGA,0.997 ± 0.025
17,TTTACCTGAG,1.37 ± 0.025
18,TTTACCTTGC,2.03 ± 0.19
19,TTTACGAAAA,1.12 ± 0.046
20,TTTACGATTG,1.03 ± 0.029
21,TTTACGTAAA,1.08 ± 0.11
22,TTTACTTCGC,1.54 ± 0.089
23,TTTAGAGGGG,1.02 ± 0.024
24,TTTAGATAAT,1 ± 0.014
25,TTTAGCCCAG,1.013 ± 0.0024
26,TTTAGCCGGT,0.995 ± 0.012

row,Sequence,switch fluorescence ratio
1,TTTAGGACGC,1.02 ± 0.022
2,TTTAGGAGGG,0.997 ± 0.019
3,TTTAGGATAA,1.02 ± 0.013
4,TTTAGGATTG,0.98 ± 0.034
5,TTTAGGCAAT,3.43 ± 2.7
6,TTTAGGCCAT,1.017 ± 0.01
7,TTTAGGCCCC,0.993 ± 0.044
8,TTTAGGCCGA,0.99 ± 0.043
9,TTTAGGGAGT,0.985 ± 0.015
10,TTTAGGGGAT,1.01 ± 0.038
11,TTTAGGGGCC,0.987 ± 0.021
12,TTTAGGGGGA,1.01 ± 0.044
13,TTTAGGGTGA,1.05 ± 0.028
14,TTTAGGGTGC,1.03 ± 0.079
15,TTTAGGGTTT,1.06 ± 0.19
16,TTTAGGTGGT,1.11 ± 0.2
17,TTTAGTCATT,0.989 ± 0.04
18,TTTAGTCCCC,1.06 ± 0.046
19,TTTAGTCGGT,0.9638 ± 0.0056
20,TTTAGTGACA,0.9978 ± 0.0036
21,TTTAGTGCAT,1.03 ± 0.034
22,TTTAGTGTAA,0.966 ± 0.019
23,TTTAGTTATT,0.998 ± 0.017
